Experimental findings from patent US20260184804A1 (KEY2BRAIN, published 2026) are described below.

Assay [1] has as its target T1, His-tagged ectodomain of human transferrin receptor 1 (hTfR1), amino acids R121-F760 (human, UniProt P02786 121-760).
T1 construct: Made in CHO cells, purified by IMAC; also called human TfR1; ectodomain of hTfR1
The assay can be described thus: SPR (Biacore T200); hTfR1 amine-coupled (~2300 RU), VHH at 100 nM; column: binding to hTfR1 similar to corresponding WT VHH. As to the method: (§1) Briefly, hTfR1 was covalently immobilized to the surface of a CM5 chip (Cytiva) by amine coupling using standard reagents. […] Subsequently, all six VHHs were diluted in running buffer (PBS supplemented with 0.05% Tween® 20 (PBS-T)) to 100 nM. A signal equal or higher than the corresponding WT was regarded as “binding similar to WT” (see Table 11).
For orientation: Surface plasmon resonance follows binding to a sensor surface in real time, without labels.

The target of assay [2] is T1, His-tagged ectodomain of human …. Description: SPR (Biacore T200); hTfR1 amine-coupled (~1000 RU), VHH at 50 nM; X = binding similar to control. As to the method: (§2) Briefly, hTfR1 was covalently immobilized to the surface of a CM5 chip (Cytiva) by amine coupling using standard reagents. Human TfR1 was diluted to 15 μg/mL in 10 mM sodium acetate pH 5.5 and immobilizing level was aimed to 1000 response units (RUs). Subsequently, all VHHs were diluted in running buffer (PBS supplemented with 0.05% Tween® 20) to 50 nM. […] Similarly, KB_A15 was also only tested fused to a His6 tag.
(§3) KB_A20-KB_A31 were only produced in CHO cells and purified by PrismA™ resin.

Assay [3] has the same target. Description: SPR (Biacore 8K, single-cycle); hTfR1 amine-coupled on CM5, fusion as analyte 0.25-64 nM.
Assay [4] has the same target. The assay can be described thus: SPR (Biacore T200); hTfR1 amine-coupled (~1000 RU), VHH at 50 nM; (-) = binding affinity severely decreased. As to the method:
as §2, §3

The target is the same in assay [5]. Description: SPR (Biacore T200); hTfR1 amine-coupled (~1000 RU), single concentration; - = no apparent binding. As to the method:
as §2, §3

The target of assay [6] is T2, His-tagged ectodomain of mouse transferrin receptor 1 (mTfR1), amino acids S122-F763 (mouse, UniProt Q62351 122-763).
T2 construct: Made in CHO cells; also called mouse TfR1
The assay can be described thus: phage ELISA on coated mTfR1 (1 µg/ml).
Description: Selected phage samples were diluted 1:10 in block buffer casein ELISA blocker (ThermoFischer Scientific), 20% v/v PEG8000 in 2.5 M NaCl before the ELISA. The targets (hTfR1, cTfR1, mTfR1) were coated at 1 μg/ml in PBS pH 7.4 overnight at 4° C. in 96-well Greiner plates (non-treated), 100 μl. The coating buffer was discarded and replaced by 100 μl block solution. The plate was covered and incubated at RT for 2 h, 900 rpm. Anti-human TfR1 antibody BA3 (MEM189, Sigma, 1 mg/ml) and anti-mTfR1 (81D3, Novus biologicals, 1 mg/ml) were diluted in block buffer to 100 nM starting concentration and diluted 1:2 in series by transferring 100 μl to 100 μl block buffer. Plates were incubated for 1 h at RT, 900 rpm, Wells were washed 3×300 μl in PBST (PBS with 0.1% Tween® 20) using the 50TS microplate washer (Biotek). Anti-M13 antibody (Anti-PVIII GE Healthcare) diluted 1:4000 in block buffer, 100 μl was added to target-coated wells followed by incubation for 1 h at RT, 900 rpm. Washing with PBST was performed. The secondary anti-mouse antibody (Sigma) 1:4000 in block buffer, incubated 1 h at RT, 900 rpm. Washes in PBST was followed by development with TMB substrate. The reaction was stopped with addition of 2 M H₂SO₄ to each well, readings for absorbance at 450 nm was measured using a SpectraMax 3000 (Molecular Devices). […]

The target in assay [7] is T1, His-tagged ectodomain of human …. Description: SPR (Biacore T200); hTfR1 amine-coupled (~1000 RU), VHH at 50 nM; (X) = binding affinity decreased. Here is the method: as §2, §3
For assay [8] the target is unchanged. Description: SPR (Biacore T200); hTfR1 amine-coupled (~2300 RU), single concentration. Here is the method: as §1

T1 sequence (P02786 other isoform, or with tags, fused parts or gaps limits assumed): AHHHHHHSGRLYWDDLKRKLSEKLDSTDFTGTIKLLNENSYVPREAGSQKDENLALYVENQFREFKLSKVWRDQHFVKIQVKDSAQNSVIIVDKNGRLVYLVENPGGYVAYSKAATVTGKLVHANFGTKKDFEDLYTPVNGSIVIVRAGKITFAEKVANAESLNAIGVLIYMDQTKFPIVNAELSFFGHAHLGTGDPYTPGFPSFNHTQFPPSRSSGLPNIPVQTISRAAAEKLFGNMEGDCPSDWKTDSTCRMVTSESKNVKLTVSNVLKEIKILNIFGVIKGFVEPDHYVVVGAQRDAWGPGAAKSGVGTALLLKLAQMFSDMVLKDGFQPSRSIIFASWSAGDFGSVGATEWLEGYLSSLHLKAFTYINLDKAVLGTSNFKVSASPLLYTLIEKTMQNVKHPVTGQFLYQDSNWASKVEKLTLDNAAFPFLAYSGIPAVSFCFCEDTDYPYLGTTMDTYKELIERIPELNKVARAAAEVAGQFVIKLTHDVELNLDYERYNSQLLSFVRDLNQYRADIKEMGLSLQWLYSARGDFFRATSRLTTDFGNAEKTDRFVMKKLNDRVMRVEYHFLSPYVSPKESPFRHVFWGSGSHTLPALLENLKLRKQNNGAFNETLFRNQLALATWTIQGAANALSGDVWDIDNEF
T2 sequence (Q62351 other isoform, or with tags, fused parts or gaps limits assumed): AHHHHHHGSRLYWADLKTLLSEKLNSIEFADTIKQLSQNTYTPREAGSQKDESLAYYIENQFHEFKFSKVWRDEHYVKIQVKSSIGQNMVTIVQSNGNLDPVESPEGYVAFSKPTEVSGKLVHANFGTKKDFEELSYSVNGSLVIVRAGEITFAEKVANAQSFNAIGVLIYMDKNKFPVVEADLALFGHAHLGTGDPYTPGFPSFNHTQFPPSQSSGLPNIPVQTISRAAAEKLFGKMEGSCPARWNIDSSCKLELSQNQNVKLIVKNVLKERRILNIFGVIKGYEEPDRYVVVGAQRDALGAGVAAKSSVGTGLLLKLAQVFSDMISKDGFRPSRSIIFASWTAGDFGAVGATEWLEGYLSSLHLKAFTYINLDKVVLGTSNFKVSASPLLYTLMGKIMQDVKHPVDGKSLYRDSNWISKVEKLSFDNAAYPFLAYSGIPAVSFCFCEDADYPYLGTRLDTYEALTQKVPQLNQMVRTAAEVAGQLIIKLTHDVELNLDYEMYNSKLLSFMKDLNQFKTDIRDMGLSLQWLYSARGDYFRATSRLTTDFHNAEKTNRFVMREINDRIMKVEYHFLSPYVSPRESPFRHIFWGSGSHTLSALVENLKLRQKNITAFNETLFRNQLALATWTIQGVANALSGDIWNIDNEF

B1: KB_A12 (KB_A01: S19R, N84S) with GGHHHHHH tag (VHH)
VHH: QVQLQESGGGSVQAGGSLRLSCAASGSIFGSKRMGWFRQAPGEQRDVVATITYRGTTEYADSVKGRFTISRDNAKNTVYLQMNSLKPEDTAVYYCWMFTTDNYWGQGTQVTVSSGGHHHHHH
B1: the binding result in assay [1] was “binds”.

B2: KB_A15 (KB_A01: S19R, V78I, N84S), His6-tagged (VHH)
VHH: QVQLQESGGGSVQAGGSLRLSCAASGSIFGSKRMGWFRQAPGEQRDVVATITYRGTTEYADSVKGRFTISRDNAKNTIYLQMNSLKPEDTAVYYCWMFTTDNYWGQGTQVTVSS
notes: also called KB3_A15
On to B2, for which the binding result in assay [2] is reported as “binds”.

B3: scFv-KB_A01 (scFv of 3D6 at the N-terminus of KB_A01) (bispecific antibody)
chain: EVKLVESGGGLVKPGASLKLSCAASGFTFSNYGMSWVRQNSDKRLEWVASIRSGGGRTYYSDNVKGRFTISRENAKNTLYLQMSSLKSEDTALYYCVRYDHYSGSSDYWGQGTTVTVSGGGGSGGGGSGGGGSYVVMTQTPLTLSVTIGQPASISCKSSQSLLDSDGKTYLNWLLQRPGQSPKRLIYLVSKLDSGVPDRFTGSGSGTDFTLKISRIEAEDLGLYYCWQGTHFPRTFGGGTKLEIKGGGGSGGGGSGGGGSQVQLQESGGGSVQAGGSLSLSCAASGSIFGSKRMGWFRQAPGEQRDVVATITYRGTTEYADSVKGRFTISRDNAKNTVYLQMNNLKPEDTAVYYCWMFTTDNYWGQGTQVTVSSGSENLYFQSHHHHHH
notes: Monovalent for TfR1; also called scFv-VHH
By Kd is commonly meant the concentration at which binding is half-saturated. For orientation: koff means the first-order rate constant of dissociation. A higher koff goes with a short-lived complex. As a reminder, the kon is the rate constant with which the complex forms. Higher therefore signals fast association. In assay [3], B3 returned a Kd of 3.16 nM, an off-rate constant (koff) of 0.00539 s⁻¹ and a kon of 1.7e+06 M⁻¹ s⁻¹.

B4: KB_A01-scFv (scFv of 3D6 at the C-terminus of KB_A01) (bispecific antibody)
chain: QVQLQESGGGSVQAGGSLSLSCAASGSIFGSKRMGWFRQAPGEQRDVVATITYRGTTEYADSVKGRFTISRDNAKNTVYLQMNNLKPEDTAVYYCWMFTTDNYWGQGTQVTVSSGGGGSGGGGSGGGGSEVKLVESGGGLVKPGASLKLSCAASGFTFSNYGMSWVRQNSDKRLEWVASIRSGGGRTYYSDNVKGRFTISRENAKNTLYLQMSSLKSEDTALYYCVRYDHYSGSSDYWGQGTTVTVSGGGGSGGGGSGGGGSYVVMTQTPLTLSVTIGQPASISCKSSQSLLDSDGKTYLNWLLQRPGQSPKRLIYLVSKLDSGVPDRFTGSGSGTDFTLKISRIEAEDLGLYYCWQGTHFPRTFGGGTKLEIKGSENLYFQSHHHHHH
notes: Monovalent for TfR1; also called VHH-scFv
For the molecule B4, in assay [3], the Kd is 3.44 nM, the off-rate constant (koff) turned out to be 0.0075 s⁻¹ and the kon is 2.18e+06 M⁻¹ s⁻¹.

B5: KB_A18 (humanized variant of KB_A01) (VHH)
VHH: EVQLVESGGGLVQPGGSLRLSCAASGSIFGSKRMGWFRQAPGKQRDVVATITYRGTTEYADSVKGRFTISRDNAKNTIYLQMNSLRPEDTAVYYCWMFTTDNYWGQGTLVTVSS
notes: Free VHH from CHO cells without tag; also run as His6-tagged E. coli form; also called KB3_A18
Regarding B5, in assay [2], the binding result was “binds”.

B6: KB_A28 (KB_A18 plus A74S) (VHH)
VHH: EVQLVESGGGLVQPGGSLRLSCAASGSIFGSKRMGWFRQAPGKQRDVVATITYRGTTEYADSVKGRFTISRDNSKNTIYLQMNSLRPEDTAVYYCWMFTTDNYWGQGTLVTVSS
notes: Free VHH from CHO cells, no tag
In the case of B6, the binding result in assay [2] is “binds”.

B7: KB_A17 (humanized variant of KB_A01) (VHH)
VHH: EVQLVESGGGLVQPGGSLRLSCAASGSIFGSKRMGWFRQAPGKQRDVVATITYRGTTEYADSVKGRFTISRDNAKNTVYLQMNSLRPEDTAVYYCWMFTTDNYWGQGTQVTVSS
notes: Free VHH from CHO cells without tag; also run as His6-tagged E. coli form
In the case of B7, the binding result in assay [2] was “binds”.

B8: KB_A24 (KB_A18 plus V47W) (VHH)
VHH: EVQLVESGGGLVQPGGSLRLSCAASGSIFGSKRMGWFRQAPGKQRDWVATITYRGTTEYADSVKGRFTISRDNAKNTIYLQMNSLRPEDTAVYYCWMFTTDNYWGQGTLVTVSS
notes: as for B6
For the molecule B8, the binding result in assay [4] is recorded as “binds”.

B9: KB_A30 (KB_A18 plus W96A) (VHH)
VHH: EVQLVESGGGLVQPGGSLRLSCAASGSIFGSKRMGWFRQAPGKQRDVVATITYRGTTEYADSVKGRFTISRDNAKNTIYLQMNSLRPEDTAVYYCAMFTTDNYWGQGTLVTVSS
notes: as for B6
In the case of B9, the binding result in assay [5] was “no binding (tested: 50 nM)”.

B10: KB_A23 (KB_A18 plus D46E) (VHH)
VHH: EVQLVESGGGLVQPGGSLRLSCAASGSIFGSKRMGWFRQAPGKQREVVATITYRGTTEYADSVKGRFTISRDNAKNTIYLQMNSLRPEDTAVYYCWMFTTDNYWGQGTLVTVSS
notes: as for B6
With B10, in assay [2], the binding result was “binds”.

B11: KB_A01 clone displayed on phage (VHH)
VHH: QVQLQESGGGSVQAGGSLSLSCAASGSIFGSKRMGWFRQAPGEQRDVVATITYRGTTEYADSVKGRFTISRDNAKNTVYLQMNNLKPEDTAVYYCWMFTTDNYWGQGTQVTVSS
Regarding B11, the binding result in assay [6] is reported as “no binding”.

B12: KB_A31 (KB_A18 plus M97R) (VHH)
VHH: EVQLVESGGGLVQPGGSLRLSCAASGSIFGSKRMGWFRQAPGKQRDVVATITYRGTTEYADSVKGRFTISRDNAKNTIYLQMNSLRPEDTAVYYCWRFTTDNYWGQGTLVTVSS
notes: as for B6
In the case of B12, the binding result in assay [5] is reported as “no binding (tested: 50 nM)”.

B13: KB_A16 (humanized variant of KB_A01) (VHH)
VHH: EVQLVESGGGSVQPGGSLRLSCAASGSIFGSKRMGWFRQAPGKQRDVVATITYRGTTEYADSVKGRFTISRDNAKNTVYLQMNSLRPEDTAVYYCWMFTTDNYWGQGTQVTVSS
notes: Free VHH from CHO cells without tag
For B13, the binding result in assay [2] is “binds”.

B14: KB_A21 (KB_A18 plus Q44G) (VHH)
VHH: EVQLVESGGGLVQPGGSLRLSCAASGSIFGSKRMGWFRQAPGKGRDVVATITYRGTTEYADSVKGRFTISRDNAKNTIYLQMNSLRPEDTAVYYCWMFTTDNYWGQGTLVTVSS
notes: as for B6
Turning to B14, the binding result in assay [2] is listed as “binds”.

B15: KB_A25 (KB_A18 plus A49S) (VHH)
VHH: EVQLVESGGGLVQPGGSLRLSCAASGSIFGSKRMGWFRQAPGKQRDVVSTITYRGTTEYADSVKGRFTISRDNAKNTIYLQMNSLRPEDTAVYYCWMFTTDNYWGQGTLVTVSS
notes: as for B6
In the case of B15, in assay [5], the binding result is listed as “no binding (tested: 50 nM)”.

B16: KB_A22 (KB_A18 plus R45L) (VHH)
VHH: EVQLVESGGGLVQPGGSLRLSCAASGSIFGSKRMGWFRQAPGKQLDVVATITYRGTTEYADSVKGRFTISRDNAKNTIYLQMNSLRPEDTAVYYCWMFTTDNYWGQGTLVTVSS
notes: as for B6
As for B16, the binding result in assay [2] is listed as “binds”.

B17: KB_A26 (KB_A18 plus T50A) (VHH)
VHH: EVQLVESGGGLVQPGGSLRLSCAASGSIFGSKRMGWFRQAPGKQRDVVAAITYRGTTEYADSVKGRFTISRDNAKNTIYLQMNSLRPEDTAVYYCWMFTTDNYWGQGTLVTVSS
notes: as for B6
On to B17, for which, in assay [5], the binding result is “no binding (tested: 50 nM)”.

B18: KB_A20 (KB_A18 plus F37V) (VHH)
VHH: EVQLVESGGGLVQPGGSLRLSCAASGSIFGSKRMGWVRQAPGKQRDVVATITYRGTTEYADSVKGRFTISRDNAKNTIYLQMNSLRPEDTAVYYCWMFTTDNYWGQGTLVTVSS
notes: Free VHH from CHO cells, no tag, purified on PrismA resin
With B18, in assay [5], the binding result is reported as “no binding (tested: 50 nM)”.

B19: KB_A27 (KB_A18 plus E58Y) (VHH)
VHH: EVQLVESGGGLVQPGGSLRLSCAASGSIFGSKRMGWFRQAPGKQRDVVATITYRGTTYYADSVKGRFTISRDNAKNTIYLQMNSLRPEDTAVYYCWMFTTDNYWGQGTLVTVSS
notes: as for B6
Consider B19, for which the binding result in assay [7] is listed as “binds”.

B20: KB_A19 (humanized variant of KB_A01) (VHH)
VHH: EVQLVESGGGLVQPGGSLRLSCAASGSIFGSKRMGWVRQAPGKGLEWVSAITYRGTTYYADSVKGRFTISRDNSKNTLYLQMNSLRAEDTAVYYCARFTTDNYWGQGTLVTVSS
notes: as for B7
B20: the binding result in assay [5] is given as “no binding (tested: 50 nM)”.

B21: ProA positive control 1 with GGHHHHHH tag (VHH)
VHH: QVQLQESGGGLVQPGGSLRLSCAASGFTFSSYAMSWVRQAPGKGLEWVSAISGSGGSTYYADSVKGRFTISRDNSKNTLYLQMNSLRAEDTAVYYCGTDMEVWGKGTTVTVSSGGHHHHHH
Take B21: in assay [8], the binding result was “no binding (tested: 100 nM)”.
